Data as given in US20150344570A1 (published 2015).

Columns and labels:
[1] = target: T1, FcγRIIb, extracellular domain with C-terminal His tag (human, UniProt P31994 43-217); assay: SPR (Biacore), relative binding, GpH7-A5/GpH7-B3/GpL16-k0 = 100
T1 construct: extracellular domain; also called 2b; FcgRIIb; not shown: His tag at the C terminus
T1 sequence (looked up): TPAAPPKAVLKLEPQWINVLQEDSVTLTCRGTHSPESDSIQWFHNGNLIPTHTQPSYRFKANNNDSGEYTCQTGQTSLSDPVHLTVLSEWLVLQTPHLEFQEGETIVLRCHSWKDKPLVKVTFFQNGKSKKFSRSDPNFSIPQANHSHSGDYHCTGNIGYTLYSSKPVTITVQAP

[2] = target: T2, FcγRIIa H (FcgRIIa type H, His at position 131), extracellular domain with C-terminal His tag (human, UniProt P12318 34-217); assay: as above
T2 construct: extracellular domain; also called 2aH; FcgRIIa H; not shown: His tag at the C terminus
T2 sequence (looked up): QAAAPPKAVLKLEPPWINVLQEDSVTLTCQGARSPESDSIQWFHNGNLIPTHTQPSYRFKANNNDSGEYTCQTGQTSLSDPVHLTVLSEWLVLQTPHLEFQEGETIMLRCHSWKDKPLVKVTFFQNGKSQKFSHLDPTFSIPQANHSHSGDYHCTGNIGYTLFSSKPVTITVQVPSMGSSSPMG

| Binder | He/Con_2b [1] | He/Con_2aH [2] |
| --- | --- | --- |
| GpH7-A5/GpH7-B3 variant K334_12R/GpL16-k0 (antibody, human IgG1, kappa, He Ab; alteration in one H chain only; also called He Ab) heavy 1: not shown heavy 2: not shown light: DIVMTQSPLSLPVTPGEPASISCQASESLVHSNRNTYLHWYLQKPGQSPQLLIYKVSNRFSGVPDRFSGSGSGTDFTLKISRVEAEDVGVYYCSQNTHVPPTFGQGTKVEIERTVAAPSVFIFPPSDEQLKSGTASVVCLLNNFYPREAKVQWKVDNALQSGNSQESVTEQDSKDSTYSLSSTLTLSKADYEKHKVYACEVTHQGLSSPVTKSFNRGEC | 111 % of control | 99.7 % of control |
| GpH7-A5/GpH7-B3 variant K334_18N/GpL16-k0 (antibody, human IgG1, kappa, He Ab; alteration in one H chain only; also called He Ab) heavy 1: not shown heavy 2: not shown light: DIVMTQSPLSLPVTPGEPASISCQASESLVHSNRNTYLHWYLQKPGQSPQLLIYKVSNRFSGVPDRFSGSGSGTDFTLKISRVEAEDVGVYYCSQNTHVPPTFGQGTKVEIERTVAAPSVFIFPPSDEQLKSGTASVVCLLNNFYPREAKVQWKVDNALQSGNSQESVTEQDSKDSTYSLSSTLTLSKADYEKHKVYACEVTHQGLSSPVTKSFNRGEC | 115 % of control | 99.7 % of control |
| GpH7-A5/GpH7-B3 variant L328_19Q/GpL16-k0 (antibody, human IgG1, kappa, He Ab; alteration in one H chain only; also called He Ab) heavy 1: not shown heavy 2: not shown light: DIVMTQSPLSLPVTPGEPASISCQASESLVHSNRNTYLHWYLQKPGQSPQLLIYKVSNRFSGVPDRFSGSGSGTDFTLKISRVEAEDVGVYYCSQNTHVPPTFGQGTKVEIERTVAAPSVFIFPPSDEQLKSGTASVVCLLNNFYPREAKVQWKVDNALQSGNSQESVTEQDSKDSTYSLSSTLTLSKADYEKHKVYACEVTHQGLSSPVTKSFNRGEC | 105 % of control | 86.8 % of control |
| GpH7-A5/GpH7-B3 variant N325_04F/GpL16-k0 (antibody, human IgG1, kappa, He Ab; alteration in one H chain only; also called He Ab) heavy 1: not shown heavy 2: not shown light: DIVMTQSPLSLPVTPGEPASISCQASESLVHSNRNTYLHWYLQKPGQSPQLLIYKVSNRFSGVPDRFSGSGSGTDFTLKISRVEAEDVGVYYCSQNTHVPPTFGQGTKVEIERTVAAPSVFIFPPSDEQLKSGTASVVCLLNNFYPREAKVQWKVDNALQSGNSQESVTEQDSKDSTYSLSSTLTLSKADYEKHKVYACEVTHQGLSSPVTKSFNRGEC | 143 % of control | 33.4 % of control |
| GpH7-A5/GpH7-B3 variant L328_07I/GpL16-k0 (antibody, human IgG1, kappa, He Ab; alteration in one H chain only; also called He Ab) heavy 1: not shown heavy 2: not shown light: DIVMTQSPLSLPVTPGEPASISCQASESLVHSNRNTYLHWYLQKPGQSPQLLIYKVSNRFSGVPDRFSGSGSGTDFTLKISRVEAEDVGVYYCSQNTHVPPTFGQGTKVEIERTVAAPSVFIFPPSDEQLKSGTASVVCLLNNFYPREAKVQWKVDNALQSGNSQESVTEQDSKDSTYSLSSTLTLSKADYEKHKVYACEVTHQGLSSPVTKSFNRGEC | 160 % of control | 93.9 % of control |
| GpH7-A5/GpH7-B3 variant L328_10E/GpL16-k0 (antibody, human IgG1, kappa, He Ab; alteration in one H chain only; also called He Ab) heavy 1: not shown heavy 2: not shown light: DIVMTQSPLSLPVTPGEPASISCQASESLVHSNRNTYLHWYLQKPGQSPQLLIYKVSNRFSGVPDRFSGSGSGTDFTLKISRVEAEDVGVYYCSQNTHVPPTFGQGTKVEIERTVAAPSVFIFPPSDEQLKSGTASVVCLLNNFYPREAKVQWKVDNALQSGNSQESVTEQDSKDSTYSLSSTLTLSKADYEKHKVYACEVTHQGLSSPVTKSFNRGEC | 172 % of control | 55.5 % of control |
| GpH7-A5/GpH7-B3 variant L328_09D/GpL16-k0 (antibody, human IgG1, kappa, He Ab; alteration in one H chain only; also called He Ab) heavy 1: not shown heavy 2: not shown light: DIVMTQSPLSLPVTPGEPASISCQASESLVHSNRNTYLHWYLQKPGQSPQLLIYKVSNRFSGVPDRFSGSGSGTDFTLKISRVEAEDVGVYYCSQNTHVPPTFGQGTKVEIERTVAAPSVFIFPPSDEQLKSGTASVVCLLNNFYPREAKVQWKVDNALQSGNSQESVTEQDSKDSTYSLSSTLTLSKADYEKHKVYACEVTHQGLSSPVTKSFNRGEC | 199 % of control | 58.5 % of control |
| GpH7-A5/GpH7-B3 variant N325_01G/GpL16-k0 (antibody, human IgG1, kappa, He Ab; alteration in one H chain only; also called He Ab) heavy 1: not shown heavy 2: not shown light: DIVMTQSPLSLPVTPGEPASISCQASESLVHSNRNTYLHWYLQKPGQSPQLLIYKVSNRFSGVPDRFSGSGSGTDFTLKISRVEAEDVGVYYCSQNTHVPPTFGQGTKVEIERTVAAPSVFIFPPSDEQLKSGTASVVCLLNNFYPREAKVQWKVDNALQSGNSQESVTEQDSKDSTYSLSSTLTLSKADYEKHKVYACEVTHQGLSSPVTKSFNRGEC | 101 % of control | 56.8 % of control |
| GpH7-A5/GpH7-B3 variant N325_03V/GpL16-k0 (antibody, human IgG1, kappa, He Ab; alteration in one H chain only; also called He Ab) heavy 1: not shown heavy 2: not shown light: DIVMTQSPLSLPVTPGEPASISCQASESLVHSNRNTYLHWYLQKPGQSPQLLIYKVSNRFSGVPDRFSGSGSGTDFTLKISRVEAEDVGVYYCSQNTHVPPTFGQGTKVEIERTVAAPSVFIFPPSDEQLKSGTASVVCLLNNFYPREAKVQWKVDNALQSGNSQESVTEQDSKDSTYSLSSTLTLSKADYEKHKVYACEVTHQGLSSPVTKSFNRGEC | 111 % of control | 45.2 % of control |
| GpH7-A5/GpH7-B3 variant N325_20W/GpL16-k0 (antibody, human IgG1, kappa, He Ab; alteration in one H chain only; also called He Ab) heavy 1: not shown heavy 2: not shown light: DIVMTQSPLSLPVTPGEPASISCQASESLVHSNRNTYLHWYLQKPGQSPQLLIYKVSNRFSGVPDRFSGSGSGTDFTLKISRVEAEDVGVYYCSQNTHVPPTFGQGTKVEIERTVAAPSVFIFPPSDEQLKSGTASVVCLLNNFYPREAKVQWKVDNALQSGNSQESVTEQDSKDSTYSLSSTLTLSKADYEKHKVYACEVTHQGLSSPVTKSFNRGEC | 169 % of control | 47.2 % of control |
| GpH7-A5/GpH7-B3 variant L328_03V/GpL16-k0 (antibody, human IgG1, kappa, He Ab; alteration in one H chain only; also called He Ab) heavy 1: not shown heavy 2: not shown light: DIVMTQSPLSLPVTPGEPASISCQASESLVHSNRNTYLHWYLQKPGQSPQLLIYKVSNRFSGVPDRFSGSGSGTDFTLKISRVEAEDVGVYYCSQNTHVPPTFGQGTKVEIERTVAAPSVFIFPPSDEQLKSGTASVVCLLNNFYPREAKVQWKVDNALQSGNSQESVTEQDSKDSTYSLSSTLTLSKADYEKHKVYACEVTHQGLSSPVTKSFNRGEC | 126 % of control | 97.8 % of control |
| GpH7-A5/GpH7-B3 variant K334_20W/GpL16-k0 (antibody, human IgG1, kappa, He Ab; alteration in one H chain only; also called He Ab) heavy 1: not shown heavy 2: not shown light: DIVMTQSPLSLPVTPGEPASISCQASESLVHSNRNTYLHWYLQKPGQSPQLLIYKVSNRFSGVPDRFSGSGSGTDFTLKISRVEAEDVGVYYCSQNTHVPPTFGQGTKVEIERTVAAPSVFIFPPSDEQLKSGTASVVCLLNNFYPREAKVQWKVDNALQSGNSQESVTEQDSKDSTYSLSSTLTLSKADYEKHKVYACEVTHQGLSSPVTKSFNRGEC | 104 % of control | 97.6 % of control |
| GpH7-A5/GpH7-B3 variant N325_07I/GpL16-k0 (antibody, human IgG1, kappa, He Ab; alteration in one H chain only; also called He Ab) heavy 1: not shown heavy 2: not shown light: DIVMTQSPLSLPVTPGEPASISCQASESLVHSNRNTYLHWYLQKPGQSPQLLIYKVSNRFSGVPDRFSGSGSGTDFTLKISRVEAEDVGVYYCSQNTHVPPTFGQGTKVEIERTVAAPSVFIFPPSDEQLKSGTASVVCLLNNFYPREAKVQWKVDNALQSGNSQESVTEQDSKDSTYSLSSTLTLSKADYEKHKVYACEVTHQGLSSPVTKSFNRGEC | 171 % of control | 38.1 % of control |
| GpH7-A5/GpH7-B3 variant N325_09D/GpL16-k0 (antibody, human IgG1, kappa, He Ab; alteration in one H chain only; also called He Ab) heavy 1: not shown heavy 2: not shown light: DIVMTQSPLSLPVTPGEPASISCQASESLVHSNRNTYLHWYLQKPGQSPQLLIYKVSNRFSGVPDRFSGSGSGTDFTLKISRVEAEDVGVYYCSQNTHVPPTFGQGTKVEIERTVAAPSVFIFPPSDEQLKSGTASVVCLLNNFYPREAKVQWKVDNALQSGNSQESVTEQDSKDSTYSLSSTLTLSKADYEKHKVYACEVTHQGLSSPVTKSFNRGEC | 124 % of control | 53.1 % of control |
| GpH7-A5/GpH7-B3 variant L328_04F/GpL16-k0 (antibody, human IgG1, kappa, He Ab; alteration in one H chain only; also called He Ab) heavy 1: not shown heavy 2: not shown light: DIVMTQSPLSLPVTPGEPASISCQASESLVHSNRNTYLHWYLQKPGQSPQLLIYKVSNRFSGVPDRFSGSGSGTDFTLKISRVEAEDVGVYYCSQNTHVPPTFGQGTKVEIERTVAAPSVFIFPPSDEQLKSGTASVVCLLNNFYPREAKVQWKVDNALQSGNSQESVTEQDSKDSTYSLSSTLTLSKADYEKHKVYACEVTHQGLSSPVTKSFNRGEC | 219 % of control | 71.7 % of control |
| GpH7-A5/GpH7-B3 variant N325_13S/GpL16-k0 (antibody, human IgG1, kappa, He Ab; alteration in one H chain only; also called He Ab) heavy 1: not shown heavy 2: not shown light: DIVMTQSPLSLPVTPGEPASISCQASESLVHSNRNTYLHWYLQKPGQSPQLLIYKVSNRFSGVPDRFSGSGSGTDFTLKISRVEAEDVGVYYCSQNTHVPPTFGQGTKVEIERTVAAPSVFIFPPSDEQLKSGTASVVCLLNNFYPREAKVQWKVDNALQSGNSQESVTEQDSKDSTYSLSSTLTLSKADYEKHKVYACEVTHQGLSSPVTKSFNRGEC | 177 % of control | 79.7 % of control |
| GpH7-A5/GpH7-B3 variant N325_08L/GpL16-k0 (antibody, human IgG1, kappa, He Ab; alteration in one H chain only; also called He Ab) heavy 1: not shown heavy 2: not shown light: DIVMTQSPLSLPVTPGEPASISCQASESLVHSNRNTYLHWYLQKPGQSPQLLIYKVSNRFSGVPDRFSGSGSGTDFTLKISRVEAEDVGVYYCSQNTHVPPTFGQGTKVEIERTVAAPSVFIFPPSDEQLKSGTASVVCLLNNFYPREAKVQWKVDNALQSGNSQESVTEQDSKDSTYSLSSTLTLSKADYEKHKVYACEVTHQGLSSPVTKSFNRGEC | 197 % of control | 52 % of control |
| GpH7-A5/GpH7-B3 variant N325_06M/GpL16-k0 (antibody, human IgG1, kappa, He Ab; alteration in one H chain only; also called He Ab) heavy 1: not shown heavy 2: not shown light: DIVMTQSPLSLPVTPGEPASISCQASESLVHSNRNTYLHWYLQKPGQSPQLLIYKVSNRFSGVPDRFSGSGSGTDFTLKISRVEAEDVGVYYCSQNTHVPPTFGQGTKVEIERTVAAPSVFIFPPSDEQLKSGTASVVCLLNNFYPREAKVQWKVDNALQSGNSQESVTEQDSKDSTYSLSSTLTLSKADYEKHKVYACEVTHQGLSSPVTKSFNRGEC | 217 % of control | 48.2 % of control |
| GpH7-A5/GpH7-B3 variant L328_15Y/GpL16-k0 (antibody, human IgG1, kappa, He Ab; alteration in one H chain only; also called He Ab) heavy 1: not shown heavy 2: not shown light: DIVMTQSPLSLPVTPGEPASISCQASESLVHSNRNTYLHWYLQKPGQSPQLLIYKVSNRFSGVPDRFSGSGSGTDFTLKISRVEAEDVGVYYCSQNTHVPPTFGQGTKVEIERTVAAPSVFIFPPSDEQLKSGTASVVCLLNNFYPREAKVQWKVDNALQSGNSQESVTEQDSKDSTYSLSSTLTLSKADYEKHKVYACEVTHQGLSSPVTKSFNRGEC | 193 % of control | 90 % of control |
